T1: GFP-Pif1 (Saccharomyces cerevisiae, UniProt P07271, H705A)
T1 construct: N-terminal superfolder GFP fusion of nuclear isoform residues 40-859, pRSF-Duet-1, E. coli Rosetta2(DE3), Ni-NTA purified
T1 sequence (P07271 40-859 H705A): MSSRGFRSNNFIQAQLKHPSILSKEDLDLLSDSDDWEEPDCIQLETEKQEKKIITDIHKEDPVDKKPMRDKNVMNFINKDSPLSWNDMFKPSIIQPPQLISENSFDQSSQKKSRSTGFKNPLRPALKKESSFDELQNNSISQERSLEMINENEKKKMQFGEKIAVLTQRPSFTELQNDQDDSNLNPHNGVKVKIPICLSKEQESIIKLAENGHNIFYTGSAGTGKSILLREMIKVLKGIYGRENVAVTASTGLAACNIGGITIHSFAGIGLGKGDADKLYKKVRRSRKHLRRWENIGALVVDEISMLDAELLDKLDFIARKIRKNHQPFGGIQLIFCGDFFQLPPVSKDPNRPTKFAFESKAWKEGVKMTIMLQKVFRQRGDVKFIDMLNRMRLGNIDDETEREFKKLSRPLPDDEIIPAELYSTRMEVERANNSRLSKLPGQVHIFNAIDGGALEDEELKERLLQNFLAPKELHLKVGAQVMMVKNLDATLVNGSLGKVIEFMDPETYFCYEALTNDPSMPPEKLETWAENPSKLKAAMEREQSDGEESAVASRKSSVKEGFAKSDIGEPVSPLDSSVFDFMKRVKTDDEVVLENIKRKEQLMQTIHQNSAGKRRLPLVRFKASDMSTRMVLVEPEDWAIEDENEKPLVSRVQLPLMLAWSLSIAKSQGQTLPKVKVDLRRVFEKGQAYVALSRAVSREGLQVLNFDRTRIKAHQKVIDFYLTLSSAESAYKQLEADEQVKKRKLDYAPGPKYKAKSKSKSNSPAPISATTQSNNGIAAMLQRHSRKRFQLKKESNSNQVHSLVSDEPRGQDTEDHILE

T2: GFP-Pif1 K312A (Saccharomyces cerevisiae, UniProt P07271 40-859, K312A)
T2 sequence: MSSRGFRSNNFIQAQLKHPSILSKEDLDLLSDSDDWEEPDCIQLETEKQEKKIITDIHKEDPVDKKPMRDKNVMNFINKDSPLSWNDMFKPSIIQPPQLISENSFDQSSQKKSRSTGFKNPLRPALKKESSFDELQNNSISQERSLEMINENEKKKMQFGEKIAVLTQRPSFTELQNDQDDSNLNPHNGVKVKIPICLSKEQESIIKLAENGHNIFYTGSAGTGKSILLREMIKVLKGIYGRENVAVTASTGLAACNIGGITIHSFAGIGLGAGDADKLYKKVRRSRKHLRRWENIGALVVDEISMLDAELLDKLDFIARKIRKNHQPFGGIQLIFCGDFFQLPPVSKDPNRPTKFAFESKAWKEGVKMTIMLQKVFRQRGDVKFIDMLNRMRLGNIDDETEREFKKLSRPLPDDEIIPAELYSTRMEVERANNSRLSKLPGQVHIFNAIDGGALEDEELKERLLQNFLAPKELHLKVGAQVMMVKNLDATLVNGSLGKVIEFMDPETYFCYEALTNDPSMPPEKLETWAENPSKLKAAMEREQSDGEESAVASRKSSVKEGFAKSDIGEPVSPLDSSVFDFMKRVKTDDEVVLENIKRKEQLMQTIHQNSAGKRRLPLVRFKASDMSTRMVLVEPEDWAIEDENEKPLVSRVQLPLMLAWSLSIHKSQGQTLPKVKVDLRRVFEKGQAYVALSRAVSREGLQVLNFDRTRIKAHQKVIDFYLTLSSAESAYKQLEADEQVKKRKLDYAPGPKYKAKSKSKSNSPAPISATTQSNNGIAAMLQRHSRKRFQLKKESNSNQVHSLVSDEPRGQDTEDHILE

T3: GFP-Pif1 K264A (Saccharomyces cerevisiae, UniProt P07271 40-859, K264A)
T3 sequence: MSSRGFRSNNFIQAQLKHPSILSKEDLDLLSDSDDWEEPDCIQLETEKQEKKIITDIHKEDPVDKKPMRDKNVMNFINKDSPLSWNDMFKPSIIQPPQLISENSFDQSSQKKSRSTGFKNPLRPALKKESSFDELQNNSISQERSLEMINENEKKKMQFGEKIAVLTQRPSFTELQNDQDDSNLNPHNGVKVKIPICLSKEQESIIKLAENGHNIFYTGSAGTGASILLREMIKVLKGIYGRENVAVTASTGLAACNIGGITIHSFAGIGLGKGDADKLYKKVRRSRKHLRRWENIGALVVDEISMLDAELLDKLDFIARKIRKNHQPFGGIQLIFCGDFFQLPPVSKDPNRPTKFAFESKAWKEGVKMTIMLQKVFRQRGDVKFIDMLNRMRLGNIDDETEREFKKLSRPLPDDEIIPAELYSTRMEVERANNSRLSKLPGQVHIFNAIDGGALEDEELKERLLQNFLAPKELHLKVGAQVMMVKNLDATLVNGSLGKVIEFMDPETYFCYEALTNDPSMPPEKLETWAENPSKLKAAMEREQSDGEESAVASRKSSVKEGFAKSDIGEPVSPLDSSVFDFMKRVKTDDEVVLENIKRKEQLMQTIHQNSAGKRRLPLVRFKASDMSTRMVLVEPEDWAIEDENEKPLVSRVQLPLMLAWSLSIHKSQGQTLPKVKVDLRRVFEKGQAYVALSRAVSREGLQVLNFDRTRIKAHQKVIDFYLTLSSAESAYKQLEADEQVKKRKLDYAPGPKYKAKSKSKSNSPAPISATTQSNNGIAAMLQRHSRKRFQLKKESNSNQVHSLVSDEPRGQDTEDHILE


Assays:
[1] = molecular target: T1, GFP-Pif1; assay: ATP hydrolysis, [γ-32P]-ATP TLC, Michaelis-Menten fit; assay type: biochemical; settings: M13 ssDNA 1.5 μM nt, 10 nM Pif1, 5 mM MgCl2, 60 mM KCl, pH 7.5, 30 °C, no RPA; labelled compound as tracer
[2] = molecular target: T2, GFP-Pif1 K312A; assay: EMSA; no ATP, 5 mM Mg2+; 35 mM Tris-HCl pH 7.5, 1 mM DTT, 5 mM MgCl2, 60 mM KCl, 0.1 mg/ml BSA, no ATP, 30 min at 30 C; 5 nM ssDNA; settings: protein: recombinant; tags: N-terminal superfolder GFP; Ni-NTA purified; label: 5' Alexa647
[3] = molecular target: T3, GFP-Pif1 K264A; assay: as above; settings: protein: recombinant; tags: N-terminal superfolder GFP; Ni-NTA purified; label: 5' Alexa647

Molecule	Km [1] [µM]	Kd [2] [µM]	Kd [3] [µM]
Nc1ncnc2c1ncn2[C@@H]1O[C@H](COP(=O)(O)OP(=O)(O)OP(=O)(O)O)[C@@H](O)[C@H]1O [ATP]	1210		
GCTAGCAGTAGCCAGCATCGAACGTACGATCGGTAACGTA (ssDNA) [40-nt ssDNA]		0.04	0.0121

Source: PMC10279920, “Single-molecule visualization of Pif1 helicase translocation on single-stranded DNA” (The Journal of Biological Chemistry, 2023)
